Measured values reported in US20180327506A1 (AbbVie / Abbott, published 2018).

Columns and labels:
[1] = target: T1, full-length mature cynomolgus EMR2 (residues Q24-N816) with N-terminal aspartic acid/lysine epitope tag, … (cynomolgus monkey (Macaca fascicularis), UniProt A0A2K5WL23 21-816); experiment: cell-based or functional assay
T1 sequence: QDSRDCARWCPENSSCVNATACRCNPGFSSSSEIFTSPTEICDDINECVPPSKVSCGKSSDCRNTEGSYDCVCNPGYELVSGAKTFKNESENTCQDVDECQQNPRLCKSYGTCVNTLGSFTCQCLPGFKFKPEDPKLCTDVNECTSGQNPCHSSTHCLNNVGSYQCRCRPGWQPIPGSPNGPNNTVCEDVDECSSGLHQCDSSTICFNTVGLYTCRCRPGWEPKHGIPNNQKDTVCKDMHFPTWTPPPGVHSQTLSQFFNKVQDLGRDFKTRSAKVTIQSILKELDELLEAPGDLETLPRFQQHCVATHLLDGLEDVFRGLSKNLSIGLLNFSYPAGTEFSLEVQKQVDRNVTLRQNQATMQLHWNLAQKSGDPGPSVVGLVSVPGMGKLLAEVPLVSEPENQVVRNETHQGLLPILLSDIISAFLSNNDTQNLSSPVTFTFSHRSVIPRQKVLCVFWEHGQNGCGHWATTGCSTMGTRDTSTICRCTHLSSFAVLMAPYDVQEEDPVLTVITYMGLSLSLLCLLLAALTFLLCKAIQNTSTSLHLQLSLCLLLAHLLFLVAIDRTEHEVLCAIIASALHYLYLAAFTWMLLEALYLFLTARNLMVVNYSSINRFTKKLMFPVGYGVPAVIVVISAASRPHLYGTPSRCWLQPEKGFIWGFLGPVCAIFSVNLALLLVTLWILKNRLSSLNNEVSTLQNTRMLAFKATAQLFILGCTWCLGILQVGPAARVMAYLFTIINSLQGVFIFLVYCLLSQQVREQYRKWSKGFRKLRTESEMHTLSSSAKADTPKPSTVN

[2] = target: T2, full-length mature human EMR2 (residues Q24-N823) with N-terminal aspartic acid/lysine epitope tag, … (human, UniProt Q9UHX3 24-823); experiment: cell-based or functional assay
T2 sequence: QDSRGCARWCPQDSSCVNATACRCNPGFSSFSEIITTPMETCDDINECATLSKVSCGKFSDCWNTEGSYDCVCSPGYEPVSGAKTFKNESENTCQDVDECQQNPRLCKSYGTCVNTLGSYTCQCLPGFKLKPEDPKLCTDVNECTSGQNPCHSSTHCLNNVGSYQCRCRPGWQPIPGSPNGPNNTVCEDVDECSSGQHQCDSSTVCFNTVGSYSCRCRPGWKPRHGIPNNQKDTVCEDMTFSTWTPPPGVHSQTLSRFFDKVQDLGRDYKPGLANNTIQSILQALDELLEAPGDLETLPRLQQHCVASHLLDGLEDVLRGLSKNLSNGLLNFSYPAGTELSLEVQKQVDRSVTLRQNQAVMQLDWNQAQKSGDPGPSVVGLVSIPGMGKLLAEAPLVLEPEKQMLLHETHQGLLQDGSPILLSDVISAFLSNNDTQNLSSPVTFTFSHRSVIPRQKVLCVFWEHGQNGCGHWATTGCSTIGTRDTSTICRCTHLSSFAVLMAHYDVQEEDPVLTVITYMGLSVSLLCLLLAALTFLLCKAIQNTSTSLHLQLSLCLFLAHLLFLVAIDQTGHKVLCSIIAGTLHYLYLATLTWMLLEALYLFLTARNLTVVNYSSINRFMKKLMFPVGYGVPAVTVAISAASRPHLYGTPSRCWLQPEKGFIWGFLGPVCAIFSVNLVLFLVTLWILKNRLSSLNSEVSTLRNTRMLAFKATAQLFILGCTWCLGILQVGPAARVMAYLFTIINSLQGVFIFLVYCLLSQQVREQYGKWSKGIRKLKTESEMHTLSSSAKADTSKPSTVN

[3] = target: T3, full-length mature human CD97 (residues Q21-I845) with N-terminal aspartic acid/lysine epitope tag, … (human, UniProt P48960 21-835); experiment: cell-based or functional assay
T3 sequence (looked up): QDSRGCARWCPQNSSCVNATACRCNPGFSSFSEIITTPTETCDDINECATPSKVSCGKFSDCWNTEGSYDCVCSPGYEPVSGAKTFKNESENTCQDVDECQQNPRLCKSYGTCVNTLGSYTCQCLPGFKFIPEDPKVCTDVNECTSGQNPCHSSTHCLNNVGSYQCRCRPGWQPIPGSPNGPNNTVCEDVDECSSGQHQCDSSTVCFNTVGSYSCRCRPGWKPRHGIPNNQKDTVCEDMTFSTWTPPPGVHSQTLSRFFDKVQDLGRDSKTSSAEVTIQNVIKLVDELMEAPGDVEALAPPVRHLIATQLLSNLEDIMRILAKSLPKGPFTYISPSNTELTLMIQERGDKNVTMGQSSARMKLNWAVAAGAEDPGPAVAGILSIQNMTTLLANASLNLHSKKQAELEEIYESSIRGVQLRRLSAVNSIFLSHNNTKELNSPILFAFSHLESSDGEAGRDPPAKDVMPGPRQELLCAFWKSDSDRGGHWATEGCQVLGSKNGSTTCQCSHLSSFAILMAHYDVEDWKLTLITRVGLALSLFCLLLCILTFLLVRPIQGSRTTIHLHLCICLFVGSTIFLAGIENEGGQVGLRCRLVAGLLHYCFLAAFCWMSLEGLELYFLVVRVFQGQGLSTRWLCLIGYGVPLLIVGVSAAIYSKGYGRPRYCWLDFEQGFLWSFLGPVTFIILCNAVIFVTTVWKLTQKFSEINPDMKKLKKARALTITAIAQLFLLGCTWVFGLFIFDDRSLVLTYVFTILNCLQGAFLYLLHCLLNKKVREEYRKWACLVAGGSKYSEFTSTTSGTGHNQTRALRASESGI

[4] = target: T1, full-length mature cynomolgus EMR2 …; experiment: flow cytometry on transduced HEK293T; 293 naive MFI 269
Protocol: (§1) The exemplary antibodies were also tested using flow cytometry to determine their ability to associate with hEMR2, cEMR2 and CD97 expressed on the surface of cells.

[5] = target: T2, full-length mature human EMR2 (residues …); experiment: as above
Protocol: as §1

[6] = target: T3, full-length mature human CD97 (residues …); experiment: as above
Protocol: as §1

[7] = target: T4, human EMR2 as naturally expressed on primary and PDX tumor cells, blood and bone marrow cells and hematologic … (human, UniProt Q9UHX3 24-823); experiment: flow cytometry on AML37p0 cells, against isotype control
T4 construct: Endogenous protein; also called hEMR2; CD312
T4 sequence: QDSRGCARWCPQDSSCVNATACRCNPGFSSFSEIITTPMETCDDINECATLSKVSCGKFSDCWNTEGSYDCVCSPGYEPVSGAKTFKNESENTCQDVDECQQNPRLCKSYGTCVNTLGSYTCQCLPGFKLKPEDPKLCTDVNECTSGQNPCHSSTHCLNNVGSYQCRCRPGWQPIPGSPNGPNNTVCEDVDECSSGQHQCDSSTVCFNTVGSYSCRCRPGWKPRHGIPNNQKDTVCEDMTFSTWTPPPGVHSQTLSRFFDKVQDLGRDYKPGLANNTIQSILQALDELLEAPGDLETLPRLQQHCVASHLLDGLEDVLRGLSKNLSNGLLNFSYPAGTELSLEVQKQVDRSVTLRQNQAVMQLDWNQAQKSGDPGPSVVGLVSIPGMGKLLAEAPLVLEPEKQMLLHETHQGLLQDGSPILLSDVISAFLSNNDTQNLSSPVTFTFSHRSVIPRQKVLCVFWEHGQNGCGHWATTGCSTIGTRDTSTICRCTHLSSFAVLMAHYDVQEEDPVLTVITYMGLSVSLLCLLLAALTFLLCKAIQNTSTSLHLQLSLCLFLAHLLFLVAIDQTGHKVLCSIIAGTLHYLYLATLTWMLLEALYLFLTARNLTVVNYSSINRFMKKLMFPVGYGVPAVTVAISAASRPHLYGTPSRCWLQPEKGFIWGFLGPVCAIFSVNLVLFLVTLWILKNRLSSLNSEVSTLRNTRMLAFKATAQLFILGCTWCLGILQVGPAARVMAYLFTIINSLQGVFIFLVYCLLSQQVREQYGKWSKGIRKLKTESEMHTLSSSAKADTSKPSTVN
Protocol: (§2) AML PDX samples were harvested by extracting both femora and tibiae from a mouse. After removing any attached muscle tissue the bones were combined and grinded up using a mortar and pistil to release the bone marrow from the rest of the bone. Cell suspensions were harvested and red blood cells lysed by exposure to a hypotonic ammonium-chloride-potassium solution (ACK). After 5 min incubation on ice the red blood cell lysis was stopped by adding 2% fetal bovine serum in PBS buffer (FSM), cells harvested by centrifugation and any tissue debris filtered out using a nylon mesh. Primary human AML samples were obtained cryopreserved as Ficol isolated mononuclear cells, thawed, washed once in FSM and used for analysis. Single cell suspensions were incubated with 4′,6-diamidino-2-phenylindole (DAPI) to detect dead cells, anti-human CD45 and CD33 to identify human leukemic cells. […] In order to partition bulk AML leukemic populations into NTG and CSC subpopulations, the PDX tumor cells were further incubated with anti-human CD34 and CD38 or candidate AML CSC markers.

[8] = target: T4, human EMR2 as naturally expressed on …; experiment: flow cytometry on AML40p0 cells, against isotype control
Protocol: AML PDX samples were harvested by extracting both femora and tibiae from a mouse. After removing any attached muscle tissue the bones were combined and grinded up using a mortar and pistil to release the bone marrow from the rest of the bone. Cell suspensions were harvested and red blood cells lysed by exposure to a hypotonic ammonium-chloride-potassium solution (ACK). After 5 min incubation on ice the red blood cell lysis was stopped by adding 2% fetal bovine serum in PBS buffer (FSM), cells harvested by centrifugation and any tissue debris filtered out using a nylon mesh. Primary human AML samples were obtained cryopreserved as Ficol isolated mononuclear cells, thawed, washed once in FSM and used for analysis. Single cell suspensions were incubated with 4′,6-diamidino-2-phenylindole (DAPI) to detect dead cells, anti-human CD45 and CD33 to identify human leukemic cells. The resulting single cell suspensions comprised a bulk sample of tumor and non-tumor cells including both NTG cells and CSCs. In order to partition bulk AML leukemic populations into NTG and CSC subpopulations, the PDX tumor cells were further incubated with anti-human CD34 and CD38 or candidate AML CSC markers.

[9] = target: T1, full-length mature cynomolgus EMR2 …; experiment: flow cytometry on transduced HEK293T; 293 naive MFI 143
Protocol: as §1

[10] = target: T2, full-length mature human EMR2 (residues …); experiment: as above
Protocol: as §1

[11] = target: T3, full-length mature human CD97 (residues …); experiment: as above
Protocol: as §1

[12] = target: T4, human EMR2 as naturally expressed on …; experiment: flow cytometry on AML20p4 PDX cells, against isotype control
Protocol: as §2

[13] = target: T4, human EMR2 as naturally expressed on …; experiment: flow cytometry on AML16-p4 PDX cells, against isotype control
Protocol: as §2

[14] = target: T4, human EMR2 as naturally expressed on …; experiment: flow cytometry on AML33p0 cells, against isotype control
Protocol: as §2

[15] = target: T4, human EMR2 as naturally expressed on …; experiment: flow cytometry on AML23p2 PDX cells, against isotype control
Protocol: as §2

[16] = target: T1, full-length mature cynomolgus EMR2 …; experiment: flow cytometry on transduced HEK293T; 293 naive MFI 109
Protocol: as §1

[17] = target: T2, full-length mature human EMR2 (residues …); experiment: as above
Protocol: as §1

[18] = target: T3, full-length mature human CD97 (residues …); experiment: as above
Protocol: as §1

B1: SC93.255 (antibody, V domains shown)
VH: QVQLQQSDAELVKPGSSVKISCKVSGFTFTDHTIHWMKQRPEQGLEWIGYIYPRDGNTKYNEKFTGKATLTADRSSSTAYMQLNSLTSEDSAVYFCASSNWAQWYFDIWGTGTTVTVSS
VL: DIQMTQSSSYLSVSLGGRVTITCKASDHINNWLAWYQQKPGNAPRLLIFGATSLETGVPSRFSGSGSGKDYTLSITSLQSEDVGTYYCQQYWSIPYTFGGGTKLEIK
notes: Murine hybridoma antibody with a kappa light chain
% live, FAB-saporin killing assay [1]: 9.63%
% live, FAB-saporin killing assay [2]: 12.1%
% live, FAB-saporin killing assay [3]: 9.09%
FC MFI [4]: 43800
FC MFI [5]: 36400
FC MFI [6]: 43300

B2: SC93.267 (antibody, V domains shown)
VH: EVQLQQSGPELVKPGASVRMSCKASGYTFTDYNMYWVKQSLGKSLEWIGYIYPNTGGATYNQKFKGKATLTVNKSSSTAFMELRSLTSEDSAVYYCGRGGLGPFAYWGQGTLVTVSA
VL: DIQMTQSPSSLSASLGGKVTITCRASQDINKFISWYQHRPGKGPRLLIHYASTLQPGIPSRFSGSGSGRDYSFSISNLEPEDIATYYCLQYDNLWTFGGGTKLEIR
notes: Murine hybridoma antibody with a kappa light chain; also called anti-hEMR2 antibody SC93.267
ΔgMFI [7]: 1610
ΔgMFI [8]: 2000
FC MFI [9]: 38700
FC MFI [10]: 36600
FC MFI [11]: 132
ΔgMFI [12]: 475
ΔgMFI [13]: 898
ΔgMFI [14]: 457
% live, FAB-saporin killing assay [1]: 27.8%
% live, FAB-saporin killing assay [2]: 15.6%
% live, FAB-saporin killing assay [3]: 89%
ΔgMFI [15]: 547

B3: SC93.256 (antibody, IgG2a, V domains shown)
VH: EVKLEESGGGLVQPGGSMKLSCAASGFTFSDAWMDWVRQSPEKGLEWVAEIRSKVNNHETYYAESVKGRFTISRDDSKSSVYLQMNSLRAEDTGIYYCIRNDYFDYWGQGTTLTVSS
VL: DIQMTQTTSSLSASLGDRVTISCSASQGIRNYLNWYQQKPDGTVKLLIYYTSRLHSGVPSRFSGSGSGTDYSLTISNLEPEDIATYYCQQYGKLPYTFGGGTKLEIK
notes: murine, IgG2a
FC MFI [16]: 37600
FC MFI [17]: 42600
FC MFI [18]: 88.3
% live, FAB-saporin killing assay [1]: 12.3%
% live, FAB-saporin killing assay [2]: 12.5%
% live, FAB-saporin killing assay [3]: 92.4%
